We go through three molecules from patent EP2072528A1 (Labeit, a person, dated 2009).

First the molecules themselves.
B2: human MuRF1 polypeptide (muscle ring finger 1), full length (enzyme)
chain: MENLEKQLICPICLEMFTKPVVILPCQHNLCRKCANDIFQAANPYWTSRGSSVSMSGGRFRCPTCRHEVIMDRHGVYGLQRNLLVENIIDIYKQECSSRPLQKGSHPMCKEHEDEKINIYCLTCEVPTCSMCKVFGIHKACEVAPLQSVFQGQKTELNNCISMLVAGNDRVQTIITQLEDSRRVTKENSHQVKEELSQKFDTLYAILDEKKSELLQRITQEQEEKLSFIEALIQQYQEQLDKSTKLVETAIQSLDEPGGATFLLTAKQLIKSIVEASKGCQLGKTEQGFENMDFFTLDLEHIADALRAIDFGTDEEEEEFIEEEDQEEEESTEGKEEGHQ
notes: Full length bait in the yeast two-hybrid screens; also called TRIM63; RNF28

In experiment [1] the target is B2. Kind of experiment: yeast two-hybrid, full length bait.
Experiment [2] has as its target ENO3 (NP_443739.2) (human, UniProt P13929 1-434, limits assumed). Kind of experiment: yeast two-hybrid.
For experiment [3], the target named is T1, EEF1G (NP_001395.1) (human, UniProt P26641 1-437, limits assumed).
T1 construct: also called translation initiation factor EEF1G
T1 sequence (P26641 whole entry): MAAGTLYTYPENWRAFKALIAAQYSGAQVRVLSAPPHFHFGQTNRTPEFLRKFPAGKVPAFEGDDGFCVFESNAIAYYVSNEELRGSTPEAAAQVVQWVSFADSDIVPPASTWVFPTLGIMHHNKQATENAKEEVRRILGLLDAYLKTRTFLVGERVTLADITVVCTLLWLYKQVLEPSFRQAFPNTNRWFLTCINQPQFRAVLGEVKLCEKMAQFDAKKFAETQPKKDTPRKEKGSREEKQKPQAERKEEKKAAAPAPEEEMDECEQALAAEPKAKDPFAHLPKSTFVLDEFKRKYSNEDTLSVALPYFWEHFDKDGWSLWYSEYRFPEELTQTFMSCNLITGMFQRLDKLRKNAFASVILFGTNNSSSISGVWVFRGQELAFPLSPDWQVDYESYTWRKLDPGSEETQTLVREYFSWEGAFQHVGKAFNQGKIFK
Description: yeast two-hybrid, full length bait.

Experiment [4] has as its target T2, sequestosome-1 (NP_003891.1) (human, UniProt Q13501 1-440, limits assumed).
T2 construct: also called SQSTM1
Description: yeast two-hybrid, full length bait.

In experiment [5] the target is B2. Description: yeast two-hybrid.

Sequence of ENO3 (NP_443739.2) (P13929 whole entry): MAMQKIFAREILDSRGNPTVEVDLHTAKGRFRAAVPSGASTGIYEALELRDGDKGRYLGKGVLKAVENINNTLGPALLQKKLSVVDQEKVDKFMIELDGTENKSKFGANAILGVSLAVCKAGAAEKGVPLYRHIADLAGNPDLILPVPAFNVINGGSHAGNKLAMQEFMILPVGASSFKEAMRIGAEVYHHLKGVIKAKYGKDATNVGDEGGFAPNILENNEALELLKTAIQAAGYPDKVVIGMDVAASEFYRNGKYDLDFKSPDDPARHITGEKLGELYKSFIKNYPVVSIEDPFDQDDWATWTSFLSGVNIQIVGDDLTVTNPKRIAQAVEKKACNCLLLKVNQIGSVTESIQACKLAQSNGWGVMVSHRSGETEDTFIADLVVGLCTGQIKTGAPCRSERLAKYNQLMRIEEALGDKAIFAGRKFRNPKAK

B1: FHL2 (NP_963851.2) (other, human, UniProt Q14192 1-279, looked up)
chain: MTERFDCHHCNESLFGKKYILREESPYCVVCFETLFANTCEECGKPIGCDCKDLSYKDRHWHEACFHCSQCRNSLVDKPFAAKEDQLLCTDCYSNEYSSKCQECKKTIMPGTRKMEYKGSSWHETCFICHRCQQPIGTKSFIPKDNQNFCVPCYEKQHAMQCVQCKKPITTGGVTYREQPWHKECFVCTACRKQLSGQRFTARDDFAYCLNCFCDLYAKKCAGCTNPISGLGGTKYISFEERQWHNDCFNCKKCSLSLVGRGFLTERDDILCPDCGKDI
Turning to B1, in experiment [1], the binding result is recorded as “binds”.
With B2, the binding result in experiment [2], in experiment [3] and in experiment [4] was “binds” each time.

B3: FABP4 (NP_001433.1) (other, human, UniProt P15090 1-132, looked up)
chain: MCDAFVGTWKLVSSENFDDYMKEVGVGFATRKVAGMAKPNMIISVNGDVITIKSESTFKNTEISFILGQEFDEVTADDRKVKSTITLDGGVLVHVQKWDGKSTTIKRKREDDKLVVECVMKGVTSTRVYERA
Take B3: in experiment [5], the binding result is “binds”.
